Test results as given in patent publication US20110300156A1 (Genmab, published 2011).

Key:
[1] = biological target: T1, human tissue factor (TF), membrane-bound on cells (human, UniProt P13726 33-295); assay: FACS, Bx-PC3 cells, 30 µg/mL
T1 construct: whole, on cells; also called cellular TF
Method in brief: (§1)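 Binding curves came from non-linear sigmoidal variable-slope fits of flow cytometry signal. Serially diluted HuMab was applied for 30 minutes on ice in PBS buffer containing 0.1% BSA and 0.02% Na-azide, with PE anti-human IgGFc secondary added after washing, again 30 minutes on ice, dark.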

TF (Innovin) = TF (Innovin) (UniProt P13726 33-295, limits assumed); assay: cell-based or functional assay
[2] = biological target: T1, human tissue factor (TF), …; assay: cell-based or functional assay
[3] = biological target: T1, human tissue factor (TF), …; assay: cell-based or functional assay; remark: listed apart in the source
[4] = biological target: T1, human tissue factor (TF), …; assay: FACS, TF transfected CHO cells (S1015-TF)
Method in brief: as §1

[5] = biological target: T1, human tissue factor (TF), …; assay: FACS, TF transfected CHO cells (S1015-TF), 7.5 µg/mL
Method in brief: as §1

[6] = biological target: T1, human tissue factor (TF), …; assay: FACS, A431 cells
Method in brief: as §1

[7] = biological target: T1, human tissue factor (TF), …; assay: cell-based or functional assay; remark: listed apart in the source
[8] = biological target: T1, human tissue factor (TF), …; assay: FACS, MDA-MB-231 cells, 30 µg/mL
Method in brief: as §1

[9] = biological target: T2, TFECDHis (extracellular domain of tissue factor, amino acid 1-251, with C-terminal His tag) (human, UniProt P13726 33-251); assay: SPR BIAcore 3000, HuMab immobilized, TFECDHis analyte
T2 construct: range 1-251; The stated range 1-251 starts at residue 1 of NP-001984; also called extracellular domain of TF
Method in brief: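 HuMab antibodies (500 RU) amine-coupled on a CM-5 chip; TFECDHis concentration series in HBS-EP run over them at 30 μl/min for 180 sec. Surface regenerated with glycine pH 2.0 or acetate pH 3.0; kinetics from double-referenced 1:1 Langmuir fitting.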

[10] = biological target: T1, human tissue factor (TF), …; assay: FACS, Bx-PC3 cells
Method in brief: as §1

[11] = biological target: T1, human tissue factor (TF), …; assay: FACS on MDA-MB-231 cells (~900.000 TF molecules/cell) [panel MDA-MB-231 cells]
[12] = biological target: T2, TFECDHis (extracellular domain of …); assay: ELISA, coated TFECDHis, mean of 3
Method in brief: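 Plates coated overnight at +4° C with 0.5 μg/mL TFECDHis in PBS pH 7.4, blocked with 2% chicken serum. Serially diluted HuMabs bound 1 h at RT with shaking, detected with HRP anti-human IgG. Binding curves fitted by sigmoidal dose-response with variable slope; anti-KLH HuMab served as negative control.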

[13] = biological target: T1, human tissue factor (TF), …; assay: FACS, MDA-MB-231 cells
Method in brief: as §1

Max MFI [1]	IC50, inhibition of blood coagulation (TF induced clotting time) (TF (Innovin)) [nM]	% max inhibition of FVIIa induced ERK phosphorylation (A431) [2] [%]	IC50, inhibition of FVIIa induced ERK phosphorylation (A431) [2] [nM]	EC50 of ADCC, Bx-PC3 cells [3] [nM]	EC50 of ADCC, MDA-MB-231 cells [3] [nM]	EC50 [4] [nM]	Max MFI [5]	EC50 [6] [nM]	IC50, inhibition of FVIIa induced IL-8 release (MDA-MB-231) [7] [nM]	max inhibition of FVIIa induced IL-8 release (MDA-MB-231) [7] [%]	Max MFI [8]	Kd [9] [nM]	EC50 [10] [nM]	EC50 (read off the curve) [11] [µg/mL]	EC50 [12] [nM]	EC50 [13] [nM]	Binder
1320	7.6	72	2.42	0.06	0.12	0.92	5630	1.74	13.6	70.4	2050	4.75	4.04	~0.07	0.27	2.16	anti-TF HuMab 109 (antibody, V domains shown, Human monoclonal antibody from HuMab mice) VH: QVQLVESGGGVVQPGRSLRLSCPASGFTFSIYAMHWVRQAPGKGLEWVAVVSNDGYNKYYADSVKGRFTISRDNSKDTLYLQMNSLRAEDTAVYYCARDGQLGRGYFDYWGQGTLVTVSS VL: EIVLTQSPATLSLSPGERAILSCRASQSVSSYLAWYQQKPGQAPRLLIYDASNRATGIPARFSGSGSGTDFTLTISSLEPEDFAVYYCQQRSNWPLTFGGGTKVEIK
1300	0.6	26	9.11	0.07	0.06	1.07	5210	8.04	–	-0.3	2450	2.78	1.86	~0.1	0.24	1.58	anti-TF HuMab 013 (antibody, V domains shown, Human monoclonal antibody from HuMab mice; also called HuMab-TF-13) VH: EVQLVQSGAEVKKPGESLKISCKGSGYSFTSYWIGWVRQMPGKGLEWMGIIYPGDSDTRYSPSFQGQVTISADKSISTAYLQWSSLKASDTAMYYCARIHRGAGYSSSWPGAFDIWGQGTMVTVSS VL: DIQMTQSPSSLSASVGDRVTITCRASQGISRWLAWYQQKPEKAPKSLIYAASSLQSGVPSRFSGSGSGTDFTLTISSLQPEDFATYYCQQYDSDPITFGQGTRLEIK
